According to paper PMC5811048, “Application of the SSB biosensor to study in vitro transcription”:

B1: ssRNA70 (ssRNA)
RNA: UUAGUUGUUCGUAGUGCUCGUCUGGCUCUGGAUUACCCGCUUAGUUGUUCGUAGUGCUCGUCUGGCUCUG
B2: ssDNA70 (dT70) (ssDNA)
DNA: TTTTTTTTTTTTTTTTTTTTTTTTTTTTTTTTTTTTTTTTTTTTTTTTTTTTTTTTTTTTTTTTTTTTTT

What was measured:
MDCC-SSB [1] = biological target: T1, MDCC-SSB (UniProt P0AGE0 1-178, G27C); experiment: MDCC fluorescence spectra; excess ssRNA70; 3 mM MgCl2; 50 mM Tris-HCl pH 7.5, 3 mM MgCl2, 100 mM (or 200 mM) NaCl; MDCC titrations 25 C; EMSA room temperature, 20 min; details: protein: recombinant; tags: pET151 vector, His tag (HisTrap purified); MDCC label (at C26, implied); chain copies: 4; single strand
MDCC-SSB [2] = biological target: T1, MDCC-SSB; experiment: MDCC fluorescence spectra; excess ssDNA70; 3 mM MgCl2; 50 mM Tris-HCl pH 7.5, 3 mM MgCl2, 100 mM (or 200 mM) NaCl; MDCC titrations 25 C; EMSA room temperature, 20 min; details: protein: recombinant; tags: pET151 vector, His tag (HisTrap purified); MDCC label (at C26, implied); chain copies: 4; single strand

T1 sequence (P0AGE0 whole entry G27C): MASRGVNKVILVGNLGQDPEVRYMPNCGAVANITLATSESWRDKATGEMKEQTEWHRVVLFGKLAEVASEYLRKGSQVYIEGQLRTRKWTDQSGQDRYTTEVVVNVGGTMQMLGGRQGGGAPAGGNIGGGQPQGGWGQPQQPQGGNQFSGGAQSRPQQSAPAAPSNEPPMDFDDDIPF

Binder	binding signal (MDCC-SSB [1])	binding signal (MDCC-SSB [2])
B1	2.1 fold fluorescence increase	
B2		1.9 fold fluorescence increase
